Target: T1, alpha1a adrenergic receptor (Homo sapiens, UniProt P35348)
T1 sequence (P35348 1-466): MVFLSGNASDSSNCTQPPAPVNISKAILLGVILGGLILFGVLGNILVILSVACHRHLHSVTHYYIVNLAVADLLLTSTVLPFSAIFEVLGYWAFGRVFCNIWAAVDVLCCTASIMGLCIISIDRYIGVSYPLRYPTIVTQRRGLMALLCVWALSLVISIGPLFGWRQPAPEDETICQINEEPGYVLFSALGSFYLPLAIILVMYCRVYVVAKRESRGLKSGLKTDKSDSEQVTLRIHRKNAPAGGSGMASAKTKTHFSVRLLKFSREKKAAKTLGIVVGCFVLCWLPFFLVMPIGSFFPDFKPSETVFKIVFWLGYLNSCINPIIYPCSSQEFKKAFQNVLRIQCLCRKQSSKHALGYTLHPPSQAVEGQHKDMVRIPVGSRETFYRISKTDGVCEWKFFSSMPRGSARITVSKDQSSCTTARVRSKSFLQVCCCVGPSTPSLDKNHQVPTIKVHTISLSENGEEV
Test: hot saturation of 125I-AdTx1 on yeast membranes expressing the alpha1a adrenergic receptor
Conditions: read-out: high-affinity specific binding (saturation) to the alpha1a adrenergic receptor; 20 μg yeast membranes, 20 h
Protocol: The analysis of the saturation of the alpha1a adrenergic receptor with AdTx1 is carried out by incubating increasing concentrations of the iodinated peptide in the presence of 20 μg of membranes containing the alpha1a adrenergic receptor, for 20 h, and then measuring the radioactivity as above.

B1: ^125I-AdTx1: radiolabeled (iodinated) AdTx1 peptide (peptide)
peptide: LTCVTSKSIFGITTEDCPDGQNLCFKRRHYVVPKIYDSTRGCAATCPIPENYDSIHCCKTDKCNE
modifications: also: radioiodinated (125I), place not given here
Kd: 0.8 ± 0.2 nM

— patent US20110117017A1, “PEPTIDES WITH PROPERTIES OF AN […] FOR THE ALPHA 1A […] RECEPTOR AND USES THEREOF” (priority 2006, published 2011)
